Source: the RNAGym collection of RNA variant scans (doi:10.7554/elife.90254)

B1: OR4K15 (parent)
chain: GUUAACGGUCAUAGGCCAUGGAAACUAGGAGCACCAUUUCGCUGCCAGUGAAGAAAUGAACAAAGAAAAUCUGGGCCAGGCAGGCAUCAAAAGAAAUAGUCUUGCGCUCAACCAGAAAGUCUGUAAUCAUUUUAAGGGUA

Variants of: B1
Test: self-cleavage, relative activity (ratio to wild type); higher = more cleavage; in vitro, sequencing; the parent is a self-cleaving ribozyme
With U38G the self-cleavage was 1.59. Work on U38A yielded a self-cleavage of 1.44. U38A U39C showed a self-cleavage of 1.62. With U37C A110G the self-cleavage was 0.13. Variant U38A U124A has a self-cleavage of 0.87. With U37A U102C the self-cleavage was 1.85. Work on U38A A116G yielded a self-cleavage of 0.81. Variant U38C G84A has a self-cleavage of 2.05. Variant U38C U133C has a self-cleavage of 0.93. In the case of A36G A96C, the self-cleavage is reported as 0.95. Work on U38A A56C yielded a self-cleavage of 1.55. In the case of A36U A95U, the self-cleavage is reported as 1.37. Variant A36U A95G has a self-cleavage of 2.18. For U38C U43A, the self-cleavage was 2.13. A36U A92G showed a self-cleavage of 1.61. U37C A135U showed a self-cleavage of 2.17. Variant U37C U49G has a self-cleavage of 0.44. Variant U37C U49C has a self-cleavage of 1.71. With U37C U49A the self-cleavage was 1.64. In the case of U38A G75C, the self-cleavage is reported as 0.03. C35U C88A showed a self-cleavage of 1.16. For U38C U132C, the self-cleavage was 1.64. Variant U37C A82U has a self-cleavage of 0.13. U38A U132C showed a self-cleavage of 1.58. For A36C A60G, the self-cleavage was 0.49. With A36U U131C the self-cleavage was 1.87. U37C C109A gave a self-cleavage of 0.34. With U37A A126G the self-cleavage was 0.44. For A36C A94G, the self-cleavage was 1.94. Work on U38G A54G yielded a self-cleavage of 1.38. For A36C A114G, the self-cleavage was 0.9. U37C G73A showed a self-cleavage of 0.19. For U38C G41U, the self-cleavage was 1.46. Work on U38G A116G yielded a self-cleavage of 1.67. With U38C A135U the self-cleavage was 1.86. U38C A135G showed a self-cleavage of 1.9. A36G U87A gave a self-cleavage of 2.26. Work on A36G U87C yielded a self-cleavage of 2.04. Variant A36G C85U has a self-cleavage of 0.98. In the case of A36G A114G, the self-cleavage is reported as 1.06. With U37C A60C the self-cleavage was 1.44. U37C A60U gave a self-cleavage of 1.69. For U38C G83A, the self-cleavage was 2.15. U38C G83U gave a self-cleavage of 0.43. With U37G A51G the self-cleavage was 1.31. In the case of U38G A96G, the self-cleavage is reported as 0.69. Variant U38A G74A has a self-cleavage of 0.21. Variant U38C A90U has a self-cleavage of 2.23. Variant A36G A51U has a self-cleavage of 1.86. With A36G A51G the self-cleavage was 0.9. For U38C C88U, the self-cleavage was 2.51. U37C U120C showed a self-cleavage of 0.84. U37C U120A gave a self-cleavage of 2.58. Work on A36G U108C yielded a self-cleavage of 0.01. Work on U37C A140U yielded a self-cleavage of 1.87. With U38C G79A the self-cleavage was 0.22. U37C U139C showed a self-cleavage of 1.72. A36G C76A showed a self-cleavage of 0.12. A36G A92G showed a self-cleavage of 1. Variant A36G A92C has a self-cleavage of 2.15. U37C U97C showed a self-cleavage of 2.06. U37A A67U showed a self-cleavage of 0.67. For C35U U102A, the self-cleavage was 0.81. With A36U U72G the self-cleavage was 0.29. U37C G104A gave a self-cleavage of 0.03. For A36C U38C, the self-cleavage was 1.43. A36G U97C gave a self-cleavage of 2.04. In the case of A36G A66G, the self-cleavage is reported as 1.8. In the case of A36U U37C, the self-cleavage is reported as 0.59. With U38A A94G the self-cleavage was 1.85. With U38A A94U the self-cleavage was 1.28. U38A A94C gave a self-cleavage of 1.68. For A36U U120C, the self-cleavage was 1.34. For U37C G80U, the self-cleavage was 0.11. Work on U38A G137U yielded a self-cleavage of 2.73. Variant A36G A62U has a self-cleavage of 2.06. A36G A62C gave a self-cleavage of 1.51. For U38C A56G, the self-cleavage was 1.5. U38C C105U showed a self-cleavage of 0.19. In the case of U38C U127A, the self-cleavage is reported as 2.78. With A36G A125G the self-cleavage was 0.6. Work on U38C A110U yielded a self-cleavage of 1.46. In the case of U37C A116G, the self-cleavage is reported as 0.98. For A36U U130C, the self-cleavage was 1.45. In the case of A36U A110G, the self-cleavage is reported as 0.21. A36U A125G gave a self-cleavage of 0.7. In the case of U38C U100C, the self-cleavage is reported as 2.28. Work on U38A A118G yielded a self-cleavage of 2.73. In the case of A36G C113U, the self-cleavage is reported as 0.07. U37C U43A gave a self-cleavage of 1.55. U37C U102C showed a self-cleavage of 1.49. Variant A36U C71U has a self-cleavage of 0.49. Work on C35U A117G yielded a self-cleavage of 1.25. Work on A36U A140G yielded a self-cleavage of 2.09. Work on U37C A117U yielded a self-cleavage of 1.11. U37C A117G showed a self-cleavage of 1.98. Work on U37A U70C yielded a self-cleavage of 1.21. Work on U37C C128A yielded a self-cleavage of 0.17. Work on U38C A69G yielded a self-cleavage of 0.88. U38C A117G showed a self-cleavage of 1.18. With U38C A125G the self-cleavage was 0.54. U38A U108G gave a self-cleavage of 0.01. For U38A U108A, the self-cleavage was 0.04. With U38C U103A the self-cleavage was 0.64. U38C U103C showed a self-cleavage of 1.18. A36G U39C showed a self-cleavage of 0.79. In the case of A36U A135U, the self-cleavage is reported as 1.85. In the case of A36U A114G, the self-cleavage is reported as 0.6. A36U A114U gave a self-cleavage of 0.14. For A36U C76A, the self-cleavage was 0.1. Work on A36G G75A yielded a self-cleavage of 0.09. Work on A36C U100C yielded a self-cleavage of 1.85. Work on A36G A69G yielded a self-cleavage of 1.37. A36G C112U gave a self-cleavage of 0.03. Work on U38A A89G yielded a self-cleavage of 2.67. A36U A67G showed a self-cleavage of 1.86. For A36U A67U, the self-cleavage was 1.55. With U38A G104A the self-cleavage was 0. For A36U U43C, the self-cleavage was 2.05. U38C A66U gave a self-cleavage of 1.32. Variant U38C A66G has a self-cleavage of 1.97. For C35U A98U, the self-cleavage was 1.52. A36U A118G showed a self-cleavage of 1.05. U37C A94G gave a self-cleavage of 1.76. Work on U38A A68G yielded a self-cleavage of 0.82. U37C A62U showed a self-cleavage of 1.49. Variant A36C U37A has a self-cleavage of 1.85. For U38A A134G, the self-cleavage was 1.9. Work on A36G G136A yielded a self-cleavage of 1.79. In the case of U38C A96G, the self-cleavage is reported as 1.51. With U38A U87A the self-cleavage was 2.41. Variant A36G U70C has a self-cleavage of 0.6. U37A A59G showed a self-cleavage of 1.78. With U37C A92G the self-cleavage was 0.77. With A36U A51G the self-cleavage was 1.82. A36U A51U gave a self-cleavage of 1.72. Work on C35U G136U yielded a self-cleavage of 1.19. C35U U38C showed a self-cleavage of 0.61. For U38C A63G, the self-cleavage was 1.7. A36U A78C showed a self-cleavage of 0.23. With A36G U37C the self-cleavage was 1.71. With U37C U38C the self-cleavage was 1.51. With A36U U127A the self-cleavage was 2.98. For A36C A86G, the self-cleavage was 1.24. For A36C A86U, the self-cleavage was 2.2. Variant A36C A96G has a self-cleavage of 1.9. U38G C107U showed a self-cleavage of 0.02. For A36G G84A, the self-cleavage was 1.88. For U38C A118U, the self-cleavage was 0.98. Variant U38C A126U has a self-cleavage of 1.12. U38A G50A gave a self-cleavage of 1.07. With A36U U102C the self-cleavage was 2.06. Variant A36G A55U has a self-cleavage of 1.38. A36G A55G gave a self-cleavage of 1.18. Work on A36C A55G yielded a self-cleavage of 1.7. Variant A36G A91C has a self-cleavage of 1.96. In the case of A36G A91G, the self-cleavage is reported as 0.95. Variant A36G A91U has a self-cleavage of 1.95. With A36G U124C the self-cleavage was 0.45. With U38C U39C the self-cleavage was 1.64. Variant U37A U127C has a self-cleavage of 0.71. Work on U38C A129G yielded a self-cleavage of 1.31. Work on U38C A129U yielded a self-cleavage of 1.21. With U38G A62C the self-cleavage was 0.78. Variant A36G A94G has a self-cleavage of 1.86. Work on U38C U108A yielded a self-cleavage of 0.03. With U38A G48A the self-cleavage was 1.31.
